Values quoted from earlier work as cited in article PMC139967 (BMC Biochemistry, 2002).

Experiments:
[1] = not given; remark: listed apart in the source

B1: Myo1c: Myosin-1c, previously called myosin-Iβ, myr 2, or MI-110K; literature preparations (protein, UniProt O00159 1-1063, looked up)
Unconventional myosin-Ic: MALQVELVPTGEIIRVVHPHRPCKLALGSDGVRVTMESALTARDRVGVQDFVLLENFTSEAAFIENLRRRFRENLIYTYIGPVLVSVNPYRDLQIYSRQHMERYRGVSFYEVPPHLFAVADTVYRALRTERRDQAVMISGESGAGKTEATKRLLQFYAETCPAPERGGAVRDRLLQSNPVLEAFGNAKTLRNDNSSRFGKYMDVQFDFKGAPVGGHILSYLLEKSRVVHQNHGERNFHIFYQLLEGGEEETLRRLGLERNPQSYLYLVKGQCAKVSSINDKSDWKVVRKALTVIDFTEDEVEDLLSIVASVLHLGNIHFAANEESNAQVTTENQLKYLTRLLSVEGSTLREALTHRKIIAKGEELLSPLNLEQAAYARDALAKAVYSRTFTWLVGKINRSLASKDVESPSWRSTTVLGLLDIYGFEVFQHNSFEQFCINYCNEKLQQLFIELTLKSEQEEYEAEGIAWEPVQYFNNKIICDLVEEKFKGIISILDEECLRPGEATDLTFLEKLEDTVKHHPHFLTHKLADQRTRKSLGRGEFRLLHYAGEVTYSVTGFLDKNNDLLFRNLKETMCSSKNPIMSQCFDRSELSDKKRPETVATQFKMSLLQLVEILQSKEPAYVRCIKPNDAKQPGRFDEVLIRHQVKYLGLLENLRVRRAGFAYRRKYEAFLQRYKSLCPETWPTWAGRPQDGVAVLVRHLGYKPEEYKMGRTKIFIRFPKTLFATEDALEVRRQSLATKIQAAWRGFHWRQKFLRVKRSAICIQSWWRGTLGRRKAAKRKWAAQTIRRLIRGFVLRHAPRCPENAFFLDHVRTSFLLNLRRQLPQNVLDTSWPTPPPALREASELLRELCIKNMVWKYCRSISPEWKQQLQQKAVASEIFKGKKDNYPQSVPRLFISTRLGTDEISPRVLQALGSEPIQYAVPVVKYDRKGYKPRSRQLLLTPNAVVIVEDAKVKQRIDYANLTGISVSSLSDSLFVLHVQRADNKQKGDVVLQSDHVIETLTKTALSANRVNSININQGSITFAGGPGRDGTIDFTPGSELLITKAKNGHLAVVAPRLNSR
effect of Ca^2+ on in vitro motility: completely halts | calmodulins per Myo1c after calmodulin supplementation (calmodulin; calmodulin supplementation): ≤ 4 | calmodulins per Myo1c heavy chain (calmodulin; purified Myo1c): 2–3 | effect of Ca^2+ on ATPase activity [1]: increases
